Experiment [1] deals with ^H7-SUMOClpC1^FLAG (recombinant ClpC1) (M. smegmatis) (UniProt A0R574).
The target is the same in experiment [2]. This is another data set of the same source.

^H7-SUMOClpC1^FLAG (recombinant ClpC1) (M. smegmatis), sequence (A0R574 whole entry): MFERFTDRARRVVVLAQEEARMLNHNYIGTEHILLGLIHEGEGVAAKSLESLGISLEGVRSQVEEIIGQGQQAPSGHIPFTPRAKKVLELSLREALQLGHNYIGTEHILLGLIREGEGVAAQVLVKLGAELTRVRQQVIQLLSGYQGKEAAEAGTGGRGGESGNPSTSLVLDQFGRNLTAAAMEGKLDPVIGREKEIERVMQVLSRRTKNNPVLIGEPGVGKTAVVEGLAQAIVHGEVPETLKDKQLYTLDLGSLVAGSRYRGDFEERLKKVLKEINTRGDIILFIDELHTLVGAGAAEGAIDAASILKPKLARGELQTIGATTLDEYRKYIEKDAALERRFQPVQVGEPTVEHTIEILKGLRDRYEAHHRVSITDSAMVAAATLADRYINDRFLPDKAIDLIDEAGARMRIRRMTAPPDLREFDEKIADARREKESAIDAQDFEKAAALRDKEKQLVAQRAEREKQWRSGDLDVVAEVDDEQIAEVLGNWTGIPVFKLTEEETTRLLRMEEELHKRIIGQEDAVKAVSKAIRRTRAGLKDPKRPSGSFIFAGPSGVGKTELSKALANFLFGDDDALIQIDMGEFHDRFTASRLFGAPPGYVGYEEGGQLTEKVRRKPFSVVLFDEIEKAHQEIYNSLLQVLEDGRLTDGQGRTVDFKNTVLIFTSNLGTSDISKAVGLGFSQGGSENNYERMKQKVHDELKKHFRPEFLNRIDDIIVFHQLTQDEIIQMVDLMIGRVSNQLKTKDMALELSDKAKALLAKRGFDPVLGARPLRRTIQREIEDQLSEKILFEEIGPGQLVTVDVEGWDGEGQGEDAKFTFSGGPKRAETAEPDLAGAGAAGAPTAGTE

On to “GFP preceded by the first 13 residues of MSMEI_3879”, for which the Km of degradation by ClpC1P1P2, loss of GFP fluorescence, Michaelis-Menten analysis in experiment [1] was found to be 19.1 µM. For the substance “^MSMEI_3879GFP (MSMEI_3879 fused to the N terminus of GFP)”, in experiment [1], the Km of degradation by 1 uM ClpC1P1P2, loss of GFP fluorescence, Michaelis-Menten analysis was 2.06 µM. On to “GFP appended with the last 13 residues of MSMEI_3879”, for which, in experiment [1], the Km of degradation by ClpC1P1P2, loss of GFP fluorescence, Michaelis-Menten analysis is 5.97 µM.

Turning to “GFP^MSMEI_3879 (MSMEI_3879 fused to the C terminus of GFP)”, the Km of degradation by 1 uM ClpC1P1P2, loss of GFP fluorescence, Michaelis-Menten analysis in experiment [1] amounted to 18.8 µM. “MSMEI_3879 (recombinant) (natural protein)”: in experiment [2], the degradation of 10 uM MSMEI 3879 by 1 uM ClpC1 and 1 uM ClpP1P2 in vitro, SDS-PAGE densitometry, protein hydrolyzed within 40 min was found to be 75%.

The values above are taken from paper PMC10433963.
